# B1: Myc–TDP-43 ΔNLS (natural protein, human, UniProt Q13148-1 1-414, looked up)
# chain: MSEYIRVTEDENDEPIEIPSEDDGTVLLSTVTAQFPGACGLRYRNPVSQCMRGVRLVEGILHAPDAGWGNLVYVVNYPKDNAAAMDETDASSAVKVKRAVQKTSDLIVLGLPWKTTEQDLKEYFSTFGEVLMVQVKKDLKTGHSKGFGFVRFTEYETQVKVMSQRHMIDGRWCDCKLPNSKQSQDEPLRSRKVFVGRCTEDMTEDELREFFSQYGDVMDVFIPKPFRAFAFVTFADDQIAQSLCGEDLIIKGISVHISNAEPKHNSNRQLERSGRFGGNPGGFGNQGGFGNSRGGGAGLGNNQGSNMGGGMNFGAFSINPAMMAAAQAALQSSWGMMGMLASQQNQSGPSGNNQNQGNMQREPNQAFGSGNNSYSGSNSGAAIGWGSASNAGSGSGFNGGFGSSMDSKSSGWGM
# Target: EGFP–TDP-43 (human, UniProt Q13148 1-414)
# Assay: co-IP
binder,measurement,value
B1,reduction of the association index relative to WT (log2),0.77 log2 units
